These results are taken from PMC7049697.

One series deals with T1, Rap1-DBD P520L (Saccharomyces cerevisiae, UniProt P11938 358-601, P520L).
T1 sequence: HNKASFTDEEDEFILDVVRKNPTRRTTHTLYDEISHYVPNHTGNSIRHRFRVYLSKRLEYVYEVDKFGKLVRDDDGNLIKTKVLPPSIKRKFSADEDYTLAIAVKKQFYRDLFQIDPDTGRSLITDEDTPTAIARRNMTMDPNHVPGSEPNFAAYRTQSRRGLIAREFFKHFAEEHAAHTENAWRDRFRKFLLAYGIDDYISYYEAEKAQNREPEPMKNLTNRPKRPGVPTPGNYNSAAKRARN
Briefly: EMSA. (In general: Mobility shift assays separate free from complexed probe on a gel.)

For another series, the target named is T2, Rap1-DBD (Saccharomyces cerevisiae, UniProt P11938 358-601).
T2 sequence: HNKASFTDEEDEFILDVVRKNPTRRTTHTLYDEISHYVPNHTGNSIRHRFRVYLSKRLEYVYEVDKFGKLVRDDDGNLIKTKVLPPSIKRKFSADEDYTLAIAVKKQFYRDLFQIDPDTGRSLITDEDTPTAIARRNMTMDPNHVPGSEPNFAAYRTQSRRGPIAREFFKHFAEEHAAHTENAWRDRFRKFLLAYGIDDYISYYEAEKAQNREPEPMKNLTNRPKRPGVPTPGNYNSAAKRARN
As to the kind of experiment: EMSA.

B1: 21 bp telomeric Rap1 site dsDNA (dsDNA)
DNA 1: CCGCACACCCACACACCAGTG
DNA 2: CACTGGTGTGTGGGTGTGCGG
For B1, the binding result with Rap1-DBD P520L and with Rap1-DBD was “binds” each time.
